Measured values reported in the Immune Epitope Database (IEDB).
One block for each sequence: values may come before it.

Assays:
[1] = target: HLA-B*15:02; experiment: IEDB peptide-MHC binding, purified MHC/competitive/fluorescence; filed as Kd, often an IC50 or EC50 that approximates it; ≥ and ≤ were set here for values at or beyond the usual limits of such assays; settings: source organism: Pseudomonas fluorescens
[2] = target: HLA-A*11:01; experiment: IEDB peptide-MHC binding, purified MHC/direct/fluorescence; filed as Kd, often an IC50 or EC50 that approximates it; ≥ and ≤ were set here for values at or beyond the usual limits of such assays
[3] = target: HLA-B*58:01; experiment: as above
[4] = target: HLA-B*07:02; experiment: as above
[5] = target: HLA-B*15:01; experiment: as above
[6] = target: HLA-B*27:05; experiment: as above
[7] = target: HLA-A*01:01; experiment: as above
[8] = target: HLA-B*40:01; experiment: as above
[9] = target: HLA-B*35:01; experiment: as above; settings: source organism: Pseudomonas fluorescens
[10] = target: HLA-A*69:01; experiment: as above
[11] = target: HLA-B*08:01; experiment: as above; settings: source organism: Pseudomonas fluorescens
[12] = target: HLA-A*03:01; experiment: as above
[13] = target: HLA-A*31:01; experiment: as above
[14] = target: HLA-A*02:01; experiment: as above
[15] = target: HLA-B*15:17; experiment: IEDB peptide-MHC binding, purified MHC/competitive/fluorescence; filed as Kd, often an IC50 or EC50 that approximates it; ≥ and ≤ were set here for values at or beyond the usual limits of such assays; settings: source organism: Listeria monocytogenes serotype 4b str. CLIP 80459
[16] = target: HLA-B*48:01; experiment: IEDB peptide-MHC binding, purified MHC/direct/fluorescence; filed as Kd, often an IC50 or EC50 that approximates it; ≥ and ≤ were set here for values at or beyond the usual limits of such assays; settings: source organism: Listeria monocytogenes
[17] = target: HLA-A*68:02; experiment: as above; settings: source organism: Listeria monocytogenes
[18] = target: HLA-B*18:01; experiment: as above
[19] = target: HLA-B*08:03; experiment: as above; settings: source organism: Listeria monocytogenes serotype 4b str. H7858
[20] = target: HLA-B*46:01; experiment: as above
[21] = target: HLA-B*57:01; experiment: as above; settings: source organism: Listeria monocytogenes
[22] = target: HLA-A*02:50; experiment: IEDB peptide-MHC binding, purified MHC/competitive/fluorescence; filed as Kd, often an IC50 or EC50 that approximates it; ≥ and ≤ were set here for values at or beyond the usual limits of such assays; settings: source organism: Yersinia pestis Nepal516
[23] = target: HLA-A*02:12; experiment: IEDB peptide-MHC binding, purified MHC/direct/fluorescence; filed as Kd, often an IC50 or EC50 that approximates it; ≥ and ≤ were set here for values at or beyond the usual limits of such assays; settings: source organism: Yersinia pestis CA88-4125
[24] = target: HLA-B*44:02; experiment: as above; settings: source organism: Yersinia pestis
[25] = target: HLA-A*24:02; experiment: as above; settings: source organism: Yersinia pestis
[26] = target: HLA-A*02:06; experiment: as above; settings: source organism: Yersinia pestis CA88-4125
[27] = target: HLA-A*02:11; experiment: as above; settings: source organism: Yersinia pestis CA88-4125
[28] = target: HLA-A*02:16; experiment: as above; settings: source organism: Yersinia pestis CA88-4125
[29] = target: HLA-A*02:19; experiment: as above; settings: source organism: Yersinia pestis CA88-4125
[30] = source organism: Pseudomonas fluorescens
[31] = source organism: Listeria monocytogenes
[32] = source organism: Yersinia pestis

- Kd [1]: 0.04 µM
- Kd [2, 30]: ≥ 20 µM
- Kd [3, 30]: ≥ 20 µM
- Kd [4, 30]: ≥ 20 µM
- Kd [5, 30]: 0.25 µM
- Kd [6, 30]: ≥ 20 µM
- Kd [7, 30]: 0.135 µM
- Kd [8, 30]: ≥ 20 µM
- Kd [9]: 0.0654 µM
- Kd [10, 30]: ≥ 20 µM
- Kd [11]: ≥ 20 µM
- Kd [12, 30]: ≥ 20 µM
- Kd [13, 30]: ≥ 20 µM
- Kd [14, 30]: ≥ 20 µM
Sequence: FVSVYFSDY

Sequence: EIEIEKNKK
- Kd [15]: ≥ 20 µM
- Kd [16]: ≥ 20 µM
- Kd [17]: ≥ 20 µM
- Kd [18, 31]: ≥ 20 µM
- Kd [2, 31]: ≥ 20 µM
- Kd [3, 31]: ≥ 20 µM
- Kd [4, 31]: ≥ 20 µM
- Kd [5, 31]: ≥ 20 µM
- Kd [6, 31]: ≥ 20 µM
- Kd [19]: ≥ 20 µM
- Kd [7, 31]: ≥ 20 µM
- Kd [8, 31]: ≥ 20 µM
- Kd [20, 31]: ≥ 20 µM
- Kd [12, 31]: ≥ 20 µM
- Kd [21]: ≥ 20 µM
- Kd [13, 31]: ≥ 20 µM
- Kd [14, 31]: ≥ 20 µM

Sequence: AMQDPNPEV
- Kd [22]: 0.0011 µM
- Kd [23]: 0.006 µM
- Kd [24]: ≥ 20 µM
- Kd [25]: ≥ 20 µM
- Kd [18, 32]: ≥ 20 µM
- Kd [2, 32]: ≥ 20 µM
- Kd [3, 32]: ≥ 20 µM
- Kd [26]: 0.04 µM
- Kd [4, 32]: ≥ 20 µM
- Kd [5, 32]: 0.319 µM
- Kd [27]: 0.005 µM
- Kd [6, 32]: ≥ 20 µM
- Kd [28]: ≤ 0.001 µM
- Kd [7, 32]: ≥ 20 µM
- Kd [8, 32]: ≥ 20 µM
- Kd [10, 32]: 5.29 µM
- Kd [20, 32]: ≥ 20 µM
- Kd [12, 32]: ≥ 20 µM
- Kd [29]: 0.042 µM
- Kd [13, 32]: ≥ 20 µM
- Kd [14, 32]: 0.189 µM
